Residue numbers refer to the chain shown, from its start. Numbers in names are those of the source. One block for each binder: values may come before it.
Tests used:
Test in all cases: cross-linking
[1] = target: T1, Smc3(R1222C) (S. cerevisiae, UniProt P47037 1-1230, R1222C)
T1 sequence (looked up): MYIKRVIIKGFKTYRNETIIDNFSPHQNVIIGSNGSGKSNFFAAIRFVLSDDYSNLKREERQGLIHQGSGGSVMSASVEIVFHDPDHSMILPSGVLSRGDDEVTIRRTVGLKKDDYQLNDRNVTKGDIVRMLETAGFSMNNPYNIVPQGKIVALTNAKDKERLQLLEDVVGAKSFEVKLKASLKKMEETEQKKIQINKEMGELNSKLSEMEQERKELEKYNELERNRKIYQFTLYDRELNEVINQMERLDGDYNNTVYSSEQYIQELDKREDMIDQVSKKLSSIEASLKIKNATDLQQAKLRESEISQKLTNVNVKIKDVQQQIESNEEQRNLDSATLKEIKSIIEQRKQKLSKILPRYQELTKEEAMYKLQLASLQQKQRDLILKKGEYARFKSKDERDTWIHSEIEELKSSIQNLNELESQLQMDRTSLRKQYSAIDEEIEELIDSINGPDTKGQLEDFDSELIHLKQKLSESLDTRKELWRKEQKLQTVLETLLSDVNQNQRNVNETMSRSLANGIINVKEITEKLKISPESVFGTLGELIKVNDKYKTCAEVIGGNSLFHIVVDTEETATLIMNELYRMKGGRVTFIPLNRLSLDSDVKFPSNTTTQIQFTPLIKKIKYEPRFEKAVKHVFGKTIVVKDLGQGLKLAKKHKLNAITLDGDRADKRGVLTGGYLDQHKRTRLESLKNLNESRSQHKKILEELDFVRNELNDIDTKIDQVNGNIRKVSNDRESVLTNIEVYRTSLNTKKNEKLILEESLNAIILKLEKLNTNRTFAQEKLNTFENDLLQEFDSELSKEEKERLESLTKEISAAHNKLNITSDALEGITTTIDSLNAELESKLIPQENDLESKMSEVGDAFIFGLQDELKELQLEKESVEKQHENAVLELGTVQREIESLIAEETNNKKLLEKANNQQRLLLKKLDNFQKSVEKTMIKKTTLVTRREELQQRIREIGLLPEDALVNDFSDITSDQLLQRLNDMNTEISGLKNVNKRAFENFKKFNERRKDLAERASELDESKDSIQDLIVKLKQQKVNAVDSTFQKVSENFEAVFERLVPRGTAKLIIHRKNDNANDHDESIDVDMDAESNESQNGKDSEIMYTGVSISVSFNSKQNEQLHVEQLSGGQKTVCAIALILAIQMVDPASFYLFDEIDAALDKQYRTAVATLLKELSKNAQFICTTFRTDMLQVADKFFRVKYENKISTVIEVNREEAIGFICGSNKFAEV

[2] = target: T2, acetylated Smc3(R1222C) (S. cerevisiae, UniProt P47037 1-1230, R1222C, acetylated, residues not given)
T2 sequence (looked up): T1 sequence (looked up)

[3] = target: T3, Smc3(K160C) (S. cerevisiae, UniProt P47037 1-1230, K160C)
T3 sequence (looked up): T1 sequence (looked up) with K160C, C1222R

[4] = target: T4, acetylated Smc3(K160C) (S. cerevisiae, UniProt P47037 1-1230, K160C, acetylated, residues not given)
T4 sequence (looked up): T1 sequence (looked up) with K160C, C1222R

cross-linking efficiency [1]: 41% | cross-linking efficiency [2]: 3%
B1: Smc1(N1192C)-HA6 (natural protein, S. cerevisiae, UniProt P32908 1-1225, looked up)
chain: MGRLVGLELSNFKSYRGVTKVGFGESNFTSIIGPNGSGKSNMMDAISFVLGVRSNHLRSNILKDLIYRGVLNDENSDDYDNEGAASSNPQSAYVKAFYQKGNKLVELMRIISRNGDTSYKIDGKTVSYKDYSIFLENENILIKAKNFLVFQGDVEQIAAQSPVELSRMFEEVSGSIQYKKEYEELKEKIEKLSKSATESIKNRRRIHGELKTYKEGINKNEEYRKQLDKKNELQKFQALWQLYHLEQQKEELTDKLSALNSEISSLKGKINNEMKSLQRSKSSFVKESAVISKQKSKLDYIFKDKEKLVSDLRLIKVPQQAAGKRISHIEKRIESLQKDLQRQKTYVERFETQLKVVTRSKEAFEEEIKQSARNYDKFKLNENDLKTYNCLHEKYLTEGGSILEEKIAVLNNDKREIQEELERFNKRADISKRRITEELSITGEKLDTQLNDLRVSLNEKNALHTERLHELKKLQSDIESANNQEYDLNFKLRETLVKIDDLSANQRETMKERKLRENIAMLKRFFPGVKGLVHDLCHPKKEKYGLAVSTILGKNFDSVIVENLTVAQECIAFLKKQRAGTASFIPLDTIETELPTLSLPDSQDYILSINAIDYEPEYEKAMQYVCGDSIICNTLNIAKDLKWKKGIRGKLVTIEGALIHKAGLMTGGISGDANNRWDKEEYQSLMSLKDKLLIQIDELSNGQRSNSIRAREVENSVSLLNSDIANLRTQVTQQKRSLDENRLEIKYHNDLIEKEIQPKITELKKKLDDLENTKDNLVKEKEALQNNIFKEFTSKIGFTIKEYENHSGELMRQQSKELQQLQKQILTVENKLQFETDRLSTTQRRYEKAQKDLENAQVEMKSLEEQEYAIEMKIGSIESKLEEHKNHLDELQKKFVTKQSELNSSEDILEDMNSNLQVLKRERDGIKEDIEKFDLERVTALKNCKISNINIPISSETTIDDLPISSTDNEAITISNSIDINYKGLPKKYKENNTDSARKELEQKIHEVEEILNELQPNARALERYDEAEGRFEVINNETEQLKAEEKKILNQFLKIKKKRKELFEKTFDYVSDHLDAIYRELTKNPNSNVELAGGNASLTIEDEDEPFNAGIKYHATPPLKRFKDMEYLSGGEKTVAALALLFAINSYQPSPFFVLDEVDAALDITNVQRIAAYIRRHRNPDLQFIVISLKCTMFEKSDALVGVYRQQQENSSKIITLDLSNYAE

cross-linking efficiency [3]: 7% | cross-linking efficiency [4]: 37%
B2: Smc1(S161C)-HA6 (natural protein, S. cerevisiae, UniProt P32908 1-1225, looked up)
chain: B1 chain with S161C, C1192N

— doi:10.1101/495762 (bioRxiv, 2018)
